The record followed here is the PETadex activity labels (doi:10.1021/acscatal.2c02275).

Sequences and labels used below:
B1: unnamed (protein)
chain: MANPYERGPDPTESSIEAVRGPFAVAQTTVSRLQADGFGGGTIYYPTDTSQGTFGAVAISPGFTAGQESIAWLGPRIASQGFVVITIDTITRLDQPDSRGRQLQAALDHLRTNSVVRNRIDPNRMAVMGHSMGGGGALSAAANNTSLEAAIPLQGWHTRKNWSSVRTPTLVVGAQLDTIAPVSSHSEAFYNSLPSDLDKAYMELRGASHSVSNTPDTTTAKYSIAWLKRFVDDDLRYEQFLCPAPDDFAISEYRSTCPF
B2: unnamed (protein)
chain: MANPYERGPDPTESSIEAVRGPFAVAQTTVSRLQADGFGGGTIYYPTDTSQGTFGAVAISPGFTAGQESIAWLGPRIASQGFVVITIDTITRLDQPDSRGRQLQAALDHLRTNSVVRNRIDPNRMAVMGHSMGGGGALSAAANNTSLEAAIPLQGWHTRKNWSSVRTPTLVVGAQLDTWAPVSSHSEAFYNSLPSDLDKAYMELRGASHLVSNTPDTTTAKYSIAWLKRFVDDDLRYEQFLCPAPDDFAISEYRSTCPF
B3: unnamed (protein)
chain: MANPYERGPDPTESSIEAVRGPFAVAQTTVSRLQADGFGGGTIYYPTDTSQGTFGAVAISPGFTAGQESIAWLGPRIASQGFVVITIDTITRLDQPDSRGRQLQAALDHLRTNSVVRNRIDPNRMAVMGHSMGGGGALSAAANNTSLEAAIPLQGWHTRKNWSSVRTPTLVVGAQLDTFAPVSSHSEAFYNSLPSDLDKAYMELRGASHLVSNTPDTTTAKYSIAWLKRFVDDDLRYEQFLCPAPDDFAISEYRSTCPF
B4: unnamed (protein)
chain: MANPYERGPDPTESSIEAVRGPFAVAQTTVSRLQADGFGGGTIYYPTDTSQGTFGAVAISPGFTAGQESIAWLGPRIASQGFVVITIDTITRLDQPDSRGRQLQAALDHLRTNSVVRNRIDPNRMAVMGHSMGGGGALSAAANNTSLEAAIPLQGWHTRKNWSSVRTPTLVVGAQLDTIAPVSSHSEAFYNSLPSDLDKAYMELRGASHWVSNTPDTTTAKYSIAWLKRFVDDDLRYEQFLCPAPDDFAISEYRSTCPF
B5: unnamed (protein)
chain: MANPYERGPDPTESSIEAVRGPFAVAQTTVSRLQADGFGGGTIYYPTDTSQGTFGAVAISPGFTAGQESIAWLGPRIASQGFVVITIDTITRLDQPDSRGRQLQAALDHLRTNSVVRNRIDPNRMAVMGHSMGGGGALSAAANNTSLEAAIPLQGWHTRKNWSSVRTPTLVVGAQLDTIAPVSSHSEAFYNSLPSDLDKAYMELRGASHNVSNTPDTTTAKYSIAWLKRFVDDDLRYEQFLCPAPDDFAISEYRSTCPF
B6: unnamed (protein)
chain: MANPYERGPDPTESSIEAVRGPFAVAQTTVSRLQADGFGGGTIYYPTDTSQGTFGAVAISPGFTAGQESIAWLGPRIASQGFVVITIDTITRLDQPDSRGRQLQAALDHLRTNSVVRNRIDPNRMAVMGHSMGGGGALSAAANNTSLEAAIPLQGWHTRKNWSSVRTPTLVVGAQLDTIAPVSSHSEAFYNSLPSDLDKAYMELRGASHIVSNTPDTTTAKYSIAWLKRFVDDDLRYEQFLCPAPDDFAISEYRSTCPF
B7: unnamed (protein)
chain: MANPYERGPDPTESSIEAVRGPFAVAQTTVSRLQADGFGGGTIYYPTDTSQGTFGAVAISPGFTAGQESIAWLGPRIASQGFVVITIDTITRLDQPDSRGRQLQAALDHLRTNSVVRNRIDPNRMAVMGHSMGGGGALSAAANNTSLEAAIPLQGWHTRKNWSSVRTPTLVVGAQLDTIAPVSSHSEAFYNSLPSDLDKAYMELRGASHKVSNTPDTTTAKYSIAWLKRFVDDDLRYEQFLCPAPDDFAISEYRSTCPF
B8: unnamed (protein)
chain: MANPYERGPDPTESSIEAVRGPFAVAQTTVSRLQADGFGGGTIYYPTDTSQGTFGAVAISPGFTAGQESIAWLGPRIASQGFVVITIDTITRLDQPDSRGRQLQAALDHLRTNSVVRNRIDPNRMAVMGHSMGGGGALSAAANNTSLEAAIPLQGWHTRKNWSSVRTPTLVVGAQLDTIAPVSSHSEAFYNSLPSDLDKAYMELRGASHYVSNTPDTTTAKYSIAWLKRFVDDDLRYEQFLCPAPDDFAISEYRSTCPF
B9: unnamed (protein)
chain: MANPYERGPDPTESSIEAVRGPFAVAQTTVSRLQADGFGGGTIYYPTDTSQGTFGAVAISPGFTAGQESIAWLGPRIASQGFVVITIDTITRLDQPDSRGRQLQAALDHLRTNSVVRNRIDPNRMAVMGHSMGGGGALSAAANNTSLEAAIPLQGWHTRKNWSSVRTPTLVVGAQLDTIAPVSSHSEAFYNSLPSDLDKAYMELCGASHLVSNTPDTTTAKYSIAWLKRFVDDDLRYEQFLCPAPDDFAICEYRSTCPF

Substrate in one series: gfPET
The experiment in a line: Proxy for plastic degradation [Relative activity]. To be noted: pH 8.
As for B1, the “Proxy for plastic degradation” value is 94%. On the same count and under the same terms, the same measure for B2: 23%. The same measure, in the same setting: the result for B3 reads 9%. On the same count and under the same terms, the same measure for B4: 85%; for B5: 97%; for B6: 54%. As to B7, the “Proxy for plastic degradation” value is 48%. Turning to B8, the “Proxy for plastic degradation” value stood at 68%.

The series is the same for the next values; noted with them: pH 8; part of the chain shown.
As to B9, the “Proxy for plastic degradation” value stood at 100%.

Substrate in another series: pcPET (post-consumer)
The series can be described thus: Proxy for plastic degradation [Released monomer concentration (HPLC/LC-MS) (MHET+TPA+BHET)]. As to conditions: pH 8; part of the chain shown.
As to B9, the “Proxy for plastic degradation” value was 62 mM.
